According to paper PMC11214832:

Target: SARS-CoV-2 Nsp15 catalytically inactive mutant H234A (SARS-CoV-2)
Assay: cryo-EM structure

SARS-CoV-2 Nsp15 catalytically inactive mutant H234A (enzyme)
stoichiometry N: 6
